Here are results for one molecule from patent US20190382503A1 (published 2019).

The target in one assay is T1, human CD137 on cells (human, UniProt Q07011 24-255).
T1 construct: Human CD137 on CHO-K1 transfectants, Jurkat/CD137 reporter cells or CD3-stimulated primary human CD8 T cells; cells named under assay; also called 4-1BB; TNFRSF9
Briefly: flow cytometry, MFI of the CD137 positive CD8 T cells. As to the method:
(§1) FACS staining and analysis of CD8 T cells: Following 48 h of incubation with or without CD3, human and cynomolgus PBMC were harvested, pooled, recounted and diluted in FACS buffer (PBS+0.5% BSA, 0.05% NaN₃) to a concentration of 5×10⁶ cells/mL. 50 μL (0.25×10⁶ cells) of cell solution was added to a 96-well FACS staining plate (Falcon #351190). Following 10 min of Fc-blocking in RT using Beriglobin (hIgG, 200 μg/mL), cells were washed in FACS buffer and then incubated for 1 h in 4° C. with 100 μL of the biotinylated ALG.APV-210 or negative control. […] Cells were analysed for ALG.APV-210 binding using flow cytometry by gating on viable, single cells expressing CD3 and CD8. MFI values (FMO subtracted) from 2 independent experiments as well as normalized pooled data from 2 experiments and EC₅₀-values were determined and plotted using GraphPad Prism 7, non-linear regression log (agonist) vs. normalized response-variable slope, n=6 donors/group.
(§2) ALG.APV-210 binding was also assessed by looking at the percentage of CD8 T cells bound by ALG.APV-210. […] The binding EC₅₀ values were also calculated on the MFI of the CD137 positive cells, and the results was an EC₅₀ of 0.17 nM for binding to human CD137 and 0.20 nM for cynomolgus monkey CD137.
(In general: Flow cytometry measures light scatter and fluorescence of single cells or particles in a stream.)

For assay [1], the target named is T2, cynomolgus CD137 on cells (cynomolgus macaque, UniProt A9YYE7 24-254).
T2 construct: whole, on cells; also called CHO-K1/cynomolgus CD137; cynomolgus monkey CD137
T2 sequence (A9YYE7 entry or part of it): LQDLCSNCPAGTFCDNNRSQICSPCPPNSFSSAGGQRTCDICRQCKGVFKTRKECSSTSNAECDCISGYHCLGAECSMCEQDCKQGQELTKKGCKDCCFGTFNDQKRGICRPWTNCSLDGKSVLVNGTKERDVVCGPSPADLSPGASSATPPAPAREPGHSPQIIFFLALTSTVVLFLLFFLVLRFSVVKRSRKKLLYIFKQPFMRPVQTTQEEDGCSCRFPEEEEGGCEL
Described as above. As for the experimental part:
as §1, §2

T1 sequence (Q07011 24-255 limits assumed): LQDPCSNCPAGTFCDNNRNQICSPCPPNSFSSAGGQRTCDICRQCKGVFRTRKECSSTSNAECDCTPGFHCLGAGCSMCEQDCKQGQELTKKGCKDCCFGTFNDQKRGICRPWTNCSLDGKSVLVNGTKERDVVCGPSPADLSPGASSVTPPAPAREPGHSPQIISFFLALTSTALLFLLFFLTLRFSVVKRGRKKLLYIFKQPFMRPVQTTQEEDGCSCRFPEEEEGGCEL

B1: biotinylated ALG.APV-210 (bispecific antibody)
chain: EVQLLESGGGLVQPGGSLRLSCAASGFTFSHGSMYWVRQAPGKGLEWVSSISSGSGSTYYADSVKGRFTISHDNSKNTLYLQMNSLRAEDTAVYYCARSSYYGSYYSIDYWGQGTLVTVSSGGGGSGGGGSGGGGSGGGGSDIQMTQSPSSLSASVGDRVTITCRASQSISSYLNWYQQKPGKAPKLLIYAASSLQSGVPSRFSGSGSGTDFTLTISSLQPEDFATYYCQQYYDNLPTFGQGTKLEIKEPKSSDKTHTCPPCPAPEAAGAPSVFLFPPKPKDTLMISRTPEVTCVVVDVSHEDPEVKFNWYVDGVEVHNAKTKPREEQYNSTYRVVSVLTVLHQDWLNGKEYKCAVSNKALPAPIEKTISKAKGQPREPQVYTLPPSRDELTKNQVSLTCLVKGFYPSDIAVEWESNGQPENNYKTTPPVLDSDGSFFLYSKLTVDKSRWQQGNVFSCSVMHEALHNHYTQKSLSLSPGSGGGGSGGGGSGGGGSPSEVQLLESGGGLVQPGGSLRLSCAASGFTFSSYAMSWVRQAPGKCLEWVSAISGSGGSTYYADSVKGRFTISRDNSKNTLYLQMNSLRAEDTAVYYCARYYGGYYSAWMDYWGQGTLVTVSSGGGGSGGGGSGGGGSGGGGSDIQMTQSPSSLSASVGDRVTITCRASQSISSFLNWYQQKPGKAPKLLIYAASSLQSGVPSRFSGSGSGTDFTLTISSLQPEDSATYYCQQTYGYLHTFGCGTKLEIKR
modifications: biotinylated (sites not given)
For the molecule B1, the EC50 (as a rule, the midpoint of the concentration-response curve) with human CD137 on cells turned out to be 0.17 nM; in assay [1], 0.2 nM.
